Our source for the stoichiometry N values is paper PMC5880276.

The stoichiometry N is the number of molecules, sites or subunits per partner or assembly.

In the test the target is HpiC1. Put plainly: crystal structure.

Turning to HpiC1 (enzyme), the stoichiometry N is 2.
